# B1: Ugi: Uracil Glycosylase Inhibitor of Bacillus subtilis bacteriophage PBS1/PBS2, small protein (9.5 kDa), SEQ ID NO: 29; expressed in cells by retroviral delivery (protein)
# chain: MTNLSDIIEKETGKQLVIQESILMLPEEVEEVIGNKPESDILVHTAYDESTDENVMLLTSDAPEYKPWALVIQDSNGENKIKML
# modifications: bacillus subtilis
# notes: expressed in cells by retroviral delivery
# Assays:
# CH12F3 cells [1] = experiment: FISH of metaphase chromosomes for sister telomere loss (STL) in CH12F3 cells; type: cell-based, mouse
# Method: B cell lymphoma cells, CH12F3-2 cells, were cultured in RPMI medium supplemented with 10% FBS, 0.05% 2- mercaptoethanol and 5% NCTC 109 (Sigma). CH12F3-2 cells stably expressing Ugi were obtained by retroviral delivery using pMIG vector as described before ^39. Class switching induction to IgA in CH12F3-2 cells was performed as previously published ^39. CSR to IgA in CH12F3-2 cells was determined with an Accuri C6™ Flow Cytometer (BD Biosciences). Mouse B cells were purified from freshly isolated splenocytes using anti-CD43 magnetic beads as described ^70. CSR was induced using 5 ? g/ml LPS (Sigma) and 20 ng/ml IL-4 (Preprotech). Cells were harvested for ChIP or metaphase spreads and FISH at 24 h post stimulation.
# For metaphase analysis cells were incubated with 50 ng/ml colcemide in cell culture media for 3 hours, harvested by trypsinization, incubated for 10 min at RT in 75 mM KCl, and fixed in freshly prepared methanol:glacial acetic acid (3:1 v/v). Cells were stored at 4° C. and when needed dropped onto wet slides and air-dried. For FISH analysis of the metaphases the cells were pre-treated with 0.05% w/v pepsin in 10 mM HCl during 10 minutes at 37° C. […] Finally, the samples were analyzed as described above. […]
# E. coli UNG = E. coli UNG (Escherichia coli, UniProt P12295); settings: cited from earlier work
# human DLBCL cell lines = experiment: Growth curves of human DLBCL cell lines; type: cell-based; settings: DLBCL AID+ (Ocy-Ly3, Ocy-Ly10) and AID− (Ocy-Ly7, Ocy-Ly8) lines expressing Ugi
# Method: Stable shRNA-mediated knockdowns were generated in CH12F3-2 cells following protocols from the RNAi Consortium (TRC). Transfected cells were selected with puromycin at 1 μg/ml final concentration. For double knockdowns, CH12F3-2 cells were first transfected with a pLKO.1 neomycin version of the shRNA (shAID or shGFP) and selected, then transduced with the second shRNA and selected again with puromycin before analysis. CH12F3 Ugi cells transduced with pMIG-Ugi-IRES-GFP were generated as described ^39, and human lymphoma Ugi cells were generated by retroviral delivery using a pLPC-PURO system (pLPC-Ugi-PURO) and transduced cells were selected with 1 ug/m1 of puromycin. The Ugi protein from bacteriophage PBS2 and its ability to inhibit eukaryotic UNG have been described ^69,31.
# The inventors therefore stratified human DLBCL cell lines on the basis of their AID protein levels into high (DLBCL AID^+) (Ocy-Ly3 and Ocy-Ly10 in FIG. 13A) or low expressing (DLBCL AID^−) lines (Ocy-Ly7 and Ocy-Ly8 in FIG. 13A) and established derivatives expressing Ugi for each one.
# CH12F3 cells [2] = experiment: Terminal restriction fragment (TRF) analysis of telomeric DNA in CH12F3 cells; type: cell-based, mouse; settings: CH12F3 Ugi cells
# CH12F3 cells [3] = experiment: Anaphase bridges by DAPI staining in CH12F3 cells expressing E6 and E7; type: cell-based, mouse; settings: CH12F3 Ugi with E6 and E7, vs CH12F3 Ugi shAID and control GFP cells
# Text: Anaphase cells were visualized by DAPI staining of cells fixed with 2% paraformaldehyde in 1X PBS and attached to slides pre-treated with poly-lysine and analyzed as described previously ^33.
# UNG = molecular target: T1, UNG (Mus musculus, UniProt P97931); experiment: UNG activity assay with CH12F3 cell extracts; type: biochemical; settings: CH12F3 Ugi cell extracts
# T1 construct: endogenous in cells; host or cells: CH12F3 (CH12F3-2) mouse B lymphoma cells, with or without retrovirally expressed Ugi and shRNAs; sonicated whole-cell extract
# Method: UNG activity assay was performed as previously described ^69 with minor modifications. Briefly, exponentially growing cells were washed in 1X PBS buffer, resuspended in HED buffer (25 mM Hepes, 5 mM EDTA, 1 mM dithiothreitol and 10% glycerol at pH 7.8) with complete protease inhibitors (Roche) and lysed by sonication (five pulses of 30 seconds) in a Bioruptor™ (Diagenode). After centrifugation at 14,000 rcf for 20 min at 4° C., the supernatant was frozen in aliquots into liquid nitrogen and stored at […]. UNG assays were carried out in HED buffer by mixing 10 μg of cell extract with 1 pmol of fluorescein-labeled oligonucleotide substrate in a final volume of 10 μl for 3 hours at 37° C. The double-stranded oligonucleotide with a single dU/dG mismatch was made by annealing 5′-[…](SEQ ID NO: 45)-fluorescein (FITC) to the complementary oligonucleotide, 5′-[…]-3′(SEQ ID NO: 46). The reaction was terminated by the addition of 10 UI of formamide loading dye and the products were resolved on 15% TBE-urea polyacrylamide gels. The apyrimidinic endonuclease (APE) activity present in the extracts was sufficient to cleave all the abasic substrate generated by UNG during the reaction. The FITC signal of the reaction products was visualized using a Typhoon Phosphorlmager™ (GE Healthcare).
# Chain of E. coli UNG (P12295 whole entry): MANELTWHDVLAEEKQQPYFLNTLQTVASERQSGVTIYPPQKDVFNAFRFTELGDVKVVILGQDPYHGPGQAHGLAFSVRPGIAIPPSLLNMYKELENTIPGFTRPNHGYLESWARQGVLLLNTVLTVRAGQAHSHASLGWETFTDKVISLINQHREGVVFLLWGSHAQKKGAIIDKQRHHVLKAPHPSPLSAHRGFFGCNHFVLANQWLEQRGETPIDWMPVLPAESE
# T1 sequence (P97931 whole entry): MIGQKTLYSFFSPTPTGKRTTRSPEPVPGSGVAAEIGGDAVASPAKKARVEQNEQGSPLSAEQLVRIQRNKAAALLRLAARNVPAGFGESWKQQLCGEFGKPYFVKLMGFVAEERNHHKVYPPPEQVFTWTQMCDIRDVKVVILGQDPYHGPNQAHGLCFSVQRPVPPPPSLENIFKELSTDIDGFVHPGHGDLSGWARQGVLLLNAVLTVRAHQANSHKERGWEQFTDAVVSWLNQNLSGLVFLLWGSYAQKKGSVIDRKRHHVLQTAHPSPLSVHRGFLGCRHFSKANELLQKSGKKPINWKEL
molecule,measurement,setting,value
B1,STL,"CH12F3 cells [1]; CH12F3 Ugi cells expressing human AID, without inducing class switching, vs CH12F3 GFP",significant increase in STL
same,metaphase chromosomes with STL,CH12F3 cells [1]; activated CH12F3 cells expressing Ugi vs CH12F3 cells expressing GFP alone,significant increase in metaphase chromosomes with STL
same,inhibition of UNG,E. coli UNG,inhibits E. coli UNG as well as UNG from other species
same,growth of DLBCL cells,human DLBCL cell lines,only impaired the growth of DLBCL AID+ cells
same,intra-telomeric G-rich single-stranded DNA,CH12F3 cells [2]; DNA treated with exonuclease before TRF analysis,MSH2-dependent increase in intra-telomeric G-rich single-stranded DNA
same,telomere G-rich 3′ overhang signal,CH12F3 cells [2]; terminal restriction fragment analysis,normal telomere G-rich 3′ overhang signal
same,anaphase bridges,CH12F3 cells [3],significantly accumulated anaphase bridges
same,UNG activity,UNG,lacked UNG activity

# Source: patent US20180221438A1, “MODULATING URACIL-DNA GLYCOSYLASE AND USES THEREOF” (Adaerata Limited Partnership, priority 2015, published 2018)
